# Columns and labels:
# [1] = biological target: T1, human E-selectin, cell-surface expressed (human, UniProt P16581 22-610); test: cell-based or functional assay
# T1 sequence: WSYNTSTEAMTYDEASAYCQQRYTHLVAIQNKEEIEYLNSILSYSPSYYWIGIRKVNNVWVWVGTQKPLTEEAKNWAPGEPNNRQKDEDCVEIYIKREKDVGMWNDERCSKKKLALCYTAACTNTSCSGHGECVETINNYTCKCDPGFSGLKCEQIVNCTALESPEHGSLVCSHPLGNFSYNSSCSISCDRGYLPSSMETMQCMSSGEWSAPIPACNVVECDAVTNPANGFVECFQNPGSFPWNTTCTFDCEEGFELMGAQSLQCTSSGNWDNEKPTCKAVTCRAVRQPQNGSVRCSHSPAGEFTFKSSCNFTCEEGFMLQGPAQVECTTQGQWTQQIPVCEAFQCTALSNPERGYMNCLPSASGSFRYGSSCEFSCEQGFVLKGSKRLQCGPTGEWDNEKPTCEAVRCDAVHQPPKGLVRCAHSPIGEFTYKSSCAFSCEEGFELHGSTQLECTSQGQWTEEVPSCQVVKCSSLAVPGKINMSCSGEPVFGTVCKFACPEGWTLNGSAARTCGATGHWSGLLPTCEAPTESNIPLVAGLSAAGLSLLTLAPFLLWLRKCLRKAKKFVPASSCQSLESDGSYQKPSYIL
# [2] = biological target: T2, cynomolgus monkey E-selectin, cell-surface expressed (cynomolgus monkey, UniProt P16581 22-610 (human entry)); test: cell-based or functional assay
# T2 chain: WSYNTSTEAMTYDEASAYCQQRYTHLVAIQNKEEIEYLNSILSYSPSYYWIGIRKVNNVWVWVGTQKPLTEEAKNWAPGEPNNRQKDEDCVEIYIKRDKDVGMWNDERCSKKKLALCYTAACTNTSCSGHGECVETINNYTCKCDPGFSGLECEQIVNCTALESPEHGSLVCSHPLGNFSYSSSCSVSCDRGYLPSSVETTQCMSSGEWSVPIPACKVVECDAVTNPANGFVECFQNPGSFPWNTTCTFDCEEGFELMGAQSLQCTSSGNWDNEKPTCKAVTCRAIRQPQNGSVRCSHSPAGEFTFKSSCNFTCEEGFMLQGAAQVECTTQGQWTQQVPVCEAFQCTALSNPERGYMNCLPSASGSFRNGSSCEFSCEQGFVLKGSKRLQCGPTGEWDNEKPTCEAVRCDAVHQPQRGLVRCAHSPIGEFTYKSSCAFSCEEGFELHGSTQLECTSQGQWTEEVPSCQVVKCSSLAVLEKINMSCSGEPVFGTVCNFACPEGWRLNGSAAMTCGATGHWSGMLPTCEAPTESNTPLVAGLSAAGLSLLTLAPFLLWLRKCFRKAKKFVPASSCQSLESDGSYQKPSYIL
# [3] = biological target: T3, recombinant histidine-tagged human E-selectin (Sino Biologicals; 13025-H08H) (human, UniProt P16581 22-556); test: cell-based or functional assay
# T3 sequence (looked up): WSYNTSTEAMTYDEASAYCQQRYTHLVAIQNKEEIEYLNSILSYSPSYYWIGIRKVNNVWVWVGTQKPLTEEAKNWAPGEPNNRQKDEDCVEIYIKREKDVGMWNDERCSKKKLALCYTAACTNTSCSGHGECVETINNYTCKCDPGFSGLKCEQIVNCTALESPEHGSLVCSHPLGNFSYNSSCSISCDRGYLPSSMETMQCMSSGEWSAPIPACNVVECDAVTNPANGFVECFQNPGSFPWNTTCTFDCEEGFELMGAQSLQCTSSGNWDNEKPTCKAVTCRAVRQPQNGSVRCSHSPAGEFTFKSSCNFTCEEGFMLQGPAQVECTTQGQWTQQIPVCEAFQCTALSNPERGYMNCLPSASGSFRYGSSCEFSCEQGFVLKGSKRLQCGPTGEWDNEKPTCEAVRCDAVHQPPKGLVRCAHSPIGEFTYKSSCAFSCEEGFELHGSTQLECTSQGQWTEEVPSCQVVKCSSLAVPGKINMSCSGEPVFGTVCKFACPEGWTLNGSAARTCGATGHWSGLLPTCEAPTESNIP
# [4] = biological target: T4, human E-selectin extracellular domain with 10 His purification tail (human, UniProt P16581 22-556); test: SPR, soluble recombinant protein
# T4 construct: also called soluable human E-selectin extracellular domain; rhE-Selectin
# T4 sequence: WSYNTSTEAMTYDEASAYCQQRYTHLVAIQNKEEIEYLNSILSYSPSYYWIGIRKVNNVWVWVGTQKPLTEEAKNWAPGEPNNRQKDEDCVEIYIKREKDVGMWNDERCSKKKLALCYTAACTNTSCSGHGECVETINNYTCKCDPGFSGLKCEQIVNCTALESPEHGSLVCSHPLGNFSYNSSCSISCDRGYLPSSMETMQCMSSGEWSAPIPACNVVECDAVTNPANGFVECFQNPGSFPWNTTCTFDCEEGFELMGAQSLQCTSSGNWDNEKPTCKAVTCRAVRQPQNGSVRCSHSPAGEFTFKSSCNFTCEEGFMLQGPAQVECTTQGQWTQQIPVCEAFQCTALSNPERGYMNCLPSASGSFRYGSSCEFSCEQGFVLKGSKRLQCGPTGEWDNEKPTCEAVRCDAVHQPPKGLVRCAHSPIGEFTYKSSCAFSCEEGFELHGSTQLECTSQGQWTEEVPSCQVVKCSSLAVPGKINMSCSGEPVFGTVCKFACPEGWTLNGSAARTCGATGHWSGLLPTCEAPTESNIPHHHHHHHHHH
# Description: To characterize binding of antibodies to human, cynomolgus monkey, and mouse E-selectin, an antibody was diluted to 0.5 μg/mL in HBS-EP+ and captured by the anti-human IgG immobilized on flow cells 2, 3 and 4 for 30 seconds to 1 minute at a flow rate of 10 μL/minute to achieve a capture level of 70 to 300 RU. Flow cell 1 was used as a reference surface. […] HBS-EP+ buffer cycles collected for each captured antibody were used for double-referencing (Myszka D G. J. Mol. Recognition 1999; 12(5):279-84). At the end of each cycle, the entire anti-IgG surface was regenerated by a 30 second pulse of 3 M MgCl₂ and a 30 second pulse of ionic buffer (1.83 M MgCl₂, 0.92 M Urea, 1.83 M Guanidine HCl, pH 7.4) (Andersson K. Analy. Chem. 1999; 71(13): 2475-81). Kinetic assays were conducted at 25° C. at a collection rate of 10 Hertz (Hz) on a BIAcore™ T200 instrument (GE Healthcare). Rate constants and affinities were determined by fitting the data to a 1:1 binding model in BIAcore™ T200 Evaluation software version 3.0 (GE Healthcare).
binder,measurement,setting,value
"optimized anti-E-selectin antibody 1444 (antibody, human IgG1, kappa, V domains shown, effector-null human IgG1, kappa) VH: EVQLVESGGGLVQPGGSLRLSCAASGYAIRSAYMHWVRQAPGKGLEWVARIDPANGNTIYVDSVTGRFTISADNAKNSAYLQMNSLRAEDTAVYYCAMDLYSTSEYWGQGTLVTVSS VL: DIQMTQSPSSLSASVGDRVTITCKTSQNIERYLNWYQQKPGKAPKLLIYAASSLQSGVPSRFSGSGSGTDFTLTISSLQPEDFATYFCLQDNAWPLTFGQGTKVEIKR","Flow adhesion neutralization of HL-60 cells, CHO cells, human E-selectin, IC50",[1],4.25 to 4.56 nM
same,"Neutralization of Human Neutrophils, CHO cells, human E-selectin, flow, IC50",[1],2.87 to 4.65 nM
same,"Static adhesion neutralization of HL-60 cells, CHO cells, human E-selectin, IC50",[1],3.36 to 4.7 nM
same,"Flow adhesion neutralization of HL-60 cells, CHO cells, cynomolgus monkey E-selectin, IC50",[2],4.32 to 4.35 nM
same,"Neutralization of Human Neutrophils, CHO cells, cynomolgus E-selectin, flow, IC50",[2],9.45 to 16.3 nM
same,"Static adhesion neutralization of HL-60 cells, CHO cells, cynomolgus monkey E-selectin, IC50",[2],3.84 nM
same,"Flow adhesion neutralization of HL-60 cells, soluble recombinant human E-selectin, IC50",[3],13.3 to 15.9 nM
same,"Neutralization of SCD patient cells, soluble human recombinant protein, flow, IC50 (mean)",[3],12.4 nM
same,Kd,[4],68.4 nM

# From patent US20240076386A1 (Pfizer, published 2024)
